Data on four molecules can be found in patent US20130143227A1 (University of Texas, published 2013).

Holding throughout (test): cell-based or functional assay
The target in assay [1] is T1, Myc-LGR4 (mouse LGR4, predicted mature form aa23-951, N-terminal Myc tag), expressed on HEK293 cells (mouse, UniProt A2ARI4 23-951).
T1 sequence: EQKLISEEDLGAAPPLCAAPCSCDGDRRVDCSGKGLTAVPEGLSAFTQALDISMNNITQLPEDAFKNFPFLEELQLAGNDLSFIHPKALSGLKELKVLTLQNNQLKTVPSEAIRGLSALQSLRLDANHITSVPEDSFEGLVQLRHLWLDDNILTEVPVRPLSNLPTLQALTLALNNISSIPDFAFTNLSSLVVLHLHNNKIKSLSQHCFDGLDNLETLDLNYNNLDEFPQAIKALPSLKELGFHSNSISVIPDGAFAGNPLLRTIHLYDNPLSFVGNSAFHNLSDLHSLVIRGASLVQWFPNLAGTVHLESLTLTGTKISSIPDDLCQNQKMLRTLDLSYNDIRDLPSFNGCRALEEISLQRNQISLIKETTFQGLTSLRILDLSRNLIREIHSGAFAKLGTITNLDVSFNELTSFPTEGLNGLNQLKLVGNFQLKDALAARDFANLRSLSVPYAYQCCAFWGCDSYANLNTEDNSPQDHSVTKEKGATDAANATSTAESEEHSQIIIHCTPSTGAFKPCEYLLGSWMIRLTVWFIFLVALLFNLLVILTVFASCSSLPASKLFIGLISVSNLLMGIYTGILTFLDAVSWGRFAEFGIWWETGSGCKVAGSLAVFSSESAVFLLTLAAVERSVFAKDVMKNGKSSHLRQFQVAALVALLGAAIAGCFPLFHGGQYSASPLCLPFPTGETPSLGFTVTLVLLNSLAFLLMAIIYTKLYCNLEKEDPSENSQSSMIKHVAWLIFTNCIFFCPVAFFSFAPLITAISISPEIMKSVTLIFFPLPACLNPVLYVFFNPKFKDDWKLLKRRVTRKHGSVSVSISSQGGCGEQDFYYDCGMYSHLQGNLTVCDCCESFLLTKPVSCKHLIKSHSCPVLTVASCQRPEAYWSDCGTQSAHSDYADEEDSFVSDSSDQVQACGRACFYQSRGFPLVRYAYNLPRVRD

Assay [2] addresses T2, Myc-LGR5 (human LGR5, predicted mature form aa21-907, N-terminal Myc tag), expressed on HEK293 cells (human, UniProt O75473 22-907).
T2 sequence: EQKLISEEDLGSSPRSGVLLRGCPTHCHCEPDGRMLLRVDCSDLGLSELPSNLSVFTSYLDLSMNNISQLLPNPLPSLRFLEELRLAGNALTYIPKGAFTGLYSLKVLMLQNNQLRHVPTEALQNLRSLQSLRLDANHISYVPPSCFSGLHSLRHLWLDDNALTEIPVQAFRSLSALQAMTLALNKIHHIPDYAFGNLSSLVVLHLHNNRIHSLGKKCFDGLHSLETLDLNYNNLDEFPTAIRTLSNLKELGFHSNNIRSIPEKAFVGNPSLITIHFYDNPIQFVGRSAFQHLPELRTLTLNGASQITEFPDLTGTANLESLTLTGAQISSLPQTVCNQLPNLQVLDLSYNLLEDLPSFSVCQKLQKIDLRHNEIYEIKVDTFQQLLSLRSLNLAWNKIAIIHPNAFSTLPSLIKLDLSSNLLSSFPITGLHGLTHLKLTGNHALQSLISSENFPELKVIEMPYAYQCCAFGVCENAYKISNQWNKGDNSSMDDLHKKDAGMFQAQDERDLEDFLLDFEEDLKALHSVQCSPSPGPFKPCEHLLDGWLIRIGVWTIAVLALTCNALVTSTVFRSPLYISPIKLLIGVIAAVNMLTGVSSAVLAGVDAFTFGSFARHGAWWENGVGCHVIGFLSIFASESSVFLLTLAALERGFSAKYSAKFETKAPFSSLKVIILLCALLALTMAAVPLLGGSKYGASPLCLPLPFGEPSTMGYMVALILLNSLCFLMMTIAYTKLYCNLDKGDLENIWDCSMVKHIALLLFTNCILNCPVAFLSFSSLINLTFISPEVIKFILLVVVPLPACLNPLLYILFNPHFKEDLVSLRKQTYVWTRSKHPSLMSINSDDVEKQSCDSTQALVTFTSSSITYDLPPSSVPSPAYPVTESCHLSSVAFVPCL

The target in assay [3] is T3, FLAG-LGR6 (human LGR6, predicted mature form aa25-967, N-terminal FLAG tag), expressed on HEK293 cells (human, UniProt Q9HBX8 26-967).
T3 sequence: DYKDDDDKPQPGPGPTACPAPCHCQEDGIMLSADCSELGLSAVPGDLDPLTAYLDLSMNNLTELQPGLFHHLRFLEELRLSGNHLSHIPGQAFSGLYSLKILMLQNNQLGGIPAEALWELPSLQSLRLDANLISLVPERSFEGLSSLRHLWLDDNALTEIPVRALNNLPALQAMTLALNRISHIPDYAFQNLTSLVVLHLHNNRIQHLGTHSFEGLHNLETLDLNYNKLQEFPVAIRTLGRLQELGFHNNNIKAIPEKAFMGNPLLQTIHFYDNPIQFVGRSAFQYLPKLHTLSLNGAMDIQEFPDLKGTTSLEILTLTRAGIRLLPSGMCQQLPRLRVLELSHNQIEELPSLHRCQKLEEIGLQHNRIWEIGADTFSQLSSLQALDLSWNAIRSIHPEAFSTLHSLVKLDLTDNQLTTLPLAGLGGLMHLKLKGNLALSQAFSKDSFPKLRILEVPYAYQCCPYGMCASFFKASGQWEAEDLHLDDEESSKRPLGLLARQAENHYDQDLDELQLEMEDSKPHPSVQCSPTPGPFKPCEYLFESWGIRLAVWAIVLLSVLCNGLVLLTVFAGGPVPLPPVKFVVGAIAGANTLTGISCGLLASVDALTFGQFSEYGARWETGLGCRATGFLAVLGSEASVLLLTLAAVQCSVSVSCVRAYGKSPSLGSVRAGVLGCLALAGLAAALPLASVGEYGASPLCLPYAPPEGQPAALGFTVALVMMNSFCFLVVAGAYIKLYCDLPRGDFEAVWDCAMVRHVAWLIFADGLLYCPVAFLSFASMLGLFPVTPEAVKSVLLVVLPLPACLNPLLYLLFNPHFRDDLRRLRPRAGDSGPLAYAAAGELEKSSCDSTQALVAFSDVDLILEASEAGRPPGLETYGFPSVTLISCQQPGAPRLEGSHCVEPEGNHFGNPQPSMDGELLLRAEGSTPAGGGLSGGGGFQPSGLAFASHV

B1: recombinant human RSPO4 (ligand)
chain: LNRRKKQVGTGLGGNCTGCIICSEENGCSTCQQRLFLFIRREGIRQYGKCLHDCPPGYFGIRGQEVNRCKKCGATCESCFSQDFCIRCKRQFYLYKGKCLPTCPPGTLAHQNTRECQGECELGPWGGWSPCTHNGKTCGSAWGLESRVREAGRAGHEEAATCQVLSESRKCPIQRPCPGERSPGQKKGRKDRRPRKDRKLDRRLDVRPRQPGLQP
notes: Bought from R&D Systems; also called R-spondin 4
In the case of B1, the “potency (EC50, nM), β-catenin reporter (Super 8x TOPFlash) with Wnt3a CM” value (from here on “potency (EC50, nM), β-catenin reporter”) was 0.09 nM in assay [1] and 0.4 nM in assay [2].

B2: recombinant human RSPO2 (ligand, UniProt Q6UXX9 22-243, looked up)
chain: QGNRWRRSKRASYVSNPICKGCLSCSKDNGCSRCQQKLFFFLRREGMRQYGECLHSCPSGYYGHRAPDMNRCARCRIENCDSCFSKDFCTKCKVGFYLHRGRCFDECPDGFAPLEETMECVEGCEVGHWSEWGTCSRNNRTCGFKWGLETRTRQIVKKPVKDTILCPTIAESRRCKMTMRHCPGGKRTPKAKEKRNKKKKRKLIERAQEQHSVFLATDRANQ
notes: Bought from R&D Systems; also called R-spondin 2
Consider B2, for which the “maximum effect (Emax, fraction of vector control), β-catenin reporter” value is 0.5 fraction of vector control in assay [3], 0.9 fraction of vector control in assay [1] and 1 fraction of vector control in assay [2]. Also, the “potency (EC50, nM), β-catenin reporter” value is 0.01 nM in assay [3], 0.0003 nM in assay [1] and 0.001 nM in assay [2].

B3: recombinant human RSPO1 (ligand, UniProt Q2MKA7 21-263, looked up)
chain: SRGIKGKRQRRISAEGSQACAKGCELCSEVNGCLKCSPKLFILLERNDIRQVGVCLPSCPPGYFDARNPDMNKCIKCKIEHCEACFSHNFCTKCKEGLYLHKGRCYPACPEGSSAANGTMECSSPAQCEMSEWSPWGPCSKKQQLCGFRRGSEERTRRVLHAPVGDHAACSDTKETRRCTVRRVPCPEGQKRRKGGQGRRENANRNLARKESKEAGAGSRRRKGQQQQQQQGTVGPLTSAGPA
notes: Bought from R&D Systems; also called R-spondin 1
With B3, the “potency (EC50, nM), β-catenin reporter” value in assay [3] is 0.03 nM; in assay [1], 0.02 nM; in assay [2] it was 0.008 nM.

B4: recombinant human RSPO3 (ligand)
chain: QNASRGRRQRRMHPNVSQGCQGGCATCSDYNGCLSCKPRLFFALERIGMKQIGVCLSSCPSGYYGTRYPDINKCTKCKADCDTCFNKNFCTKCKSGFYLHLGKCLDNCPEGLEANNHTMECVSIVHCEVSEWNPWSPCTKKGKTCGFKRGTETRVREIIQHPSAKGNLCPPTNETRKCTVQRKKCQKGERGKKGRERKRKKPNKGESKEAIPDSKSLESSKEIPEQRENKQQQKKRKVQDKQKSVSVSTVH
notes: Bought from R&D Systems; also called R-spondin 3
In the case of B4, the “maximum effect (Emax, fraction of vector control), β-catenin reporter” value in assay [3] is 0.5 fraction of vector control; in assay [1] it was 0.9 fraction of vector control; in assay [2], 1.1 fraction of vector control. The “potency (EC50, nM), β-catenin reporter” value was 0.05 nM in assay [3], 0.02 nM in assay [1] and 0.01 nM in assay [2].
